According to US20220195012A1 (NATIONAL CENTRE FOR CELL SCIENCE, published 2022):
Residue numbers refer to the chain shown, from its start. Names may count otherwise. “And” between values parts separate entries of the source, which are not always exact repeats. Equal entries are not always repeated.

B1: D2M2-4 (DAF-MCP chimera with the DAF D2-D3 linker) (other)
chain: CEVPTRLNSASLKQPYITQNYFPVGTVVEYECRPGYRREPSLSPKLTCLQNLKWSTAVEFCKKKSCPYIRDPLNGQAVPANGTYEFGYQMHFICNEGYYLIGEEILYCELKGSVAIWSGKPPICEKVLCTPPPKIKNGKHTFSEVEVFEYLDAVTYSCDPAPGPDPFSLIGESTIYCGDNSVWSRAAPECKVVKCRFPVVENGKQISGFGKKFYYKATVMFECDKGFYLDGSDTIVCDSNSTWDPPVPKCLKVL
B2: D2M2-4 (ML) (DAF-MCP chimera with the MCP M1-M2 linker YRET) (other)
chain: B1 chain with K62Y, K63R, K64E, S65T
B3: D2M2-4 (L161K) (other)
chain: B1 chain with L128K
B4: D2M2-4 (I134A) (other)
chain: B1 chain with I101A
B5: D2M2-4 (Y101N) (other)
chain: B1 chain with Y68N
B6: D2M2-4 (E136Q) (D2) (other)
chain: B1 chain with E39Q
B7: D2D3M3M4 (Multi-4) (other)
chain: CEVPTRLNSASLKQPYITQNYFPVGTVVEYECRPGYRREPSLSPKLTCLQNLKWSTAVEFCKKKSCPNPGEIRNGQIDVPGGILFGATISFSCNTGYKLIGKTSSFCLISGSSVQWSDKLPICEKVLCTPPPKIKNGKHTFSEVEVFEYLDAVTYSCDPAPGPDPFSLIGESTIYCGDNSVWSRAAPECKVVKCRFPVVENGKQISGFGKKFYYKATVMFECDKGFYLDGSDTIVCDSNSTWDPPVPKCLKVL
B8: D2D3M3M4 (DAF-MCP chimera) (other)
chain: B7 chain with I100F, K102S, K119P, I122E, E124R, K125E, V126I, L127Y
B9: Human DAF (D1-D4), decay-accelerating factor (other)
chain: CGLPPDVPNAQPALEGRTSFPEDTVITYKCEESFVKIPGEKDSVICLKGSQWSDIEEFCNRSCEVPTRLNSASLKQPYITQNYFPVGTVVEYECRPGYRREPSLSPKLTCLQNLKWSTAVEFCKKKSCPNPGEIRNGQIDVPGGILFGATISFSCNTGYKLFGSTSSFCLISGSSVQWSDPLPECREIYCPAPPQIDNGIIQGERDHYGYRQSVTYACNKGFTMIGEHSIYCTVNNDEGEWSGPPPECRGKS
B10: Human MCP (M1-M4), membrane cofactor protein (other)
chain: CEEPPTFEAMELIGKPKPYYEIGERVDYKCKKGYFYIPPLATHTICDRNHTWLPVSDDACYRETCPYIRDPLNGQAVPANGTYEFGYQMHFICNEGYYLIGEEILYCELKGSVAIWSGKPPICEKVLCTPPPKIKNGKHTFSEVEVFEYLDAVTYSCDPAPGPDPFSLIGESTIYCGDNSVWSRAAPECKVVKCRFPVVENGKQISGFGKKFYYKATVMFECDKGFYLDGSDTIVCDSNSTWDPPVPKCLKVL

What was measured:
Assay in all cases: cell-based or functional assay
[1] = target: T1, AP C3-convertase (C3bBb) (UniProt P01024 23-667; P01024 749-1663; P00751 260-764)
T1 sequence (P01024 23-667 limits assumed, chain 1 of 3): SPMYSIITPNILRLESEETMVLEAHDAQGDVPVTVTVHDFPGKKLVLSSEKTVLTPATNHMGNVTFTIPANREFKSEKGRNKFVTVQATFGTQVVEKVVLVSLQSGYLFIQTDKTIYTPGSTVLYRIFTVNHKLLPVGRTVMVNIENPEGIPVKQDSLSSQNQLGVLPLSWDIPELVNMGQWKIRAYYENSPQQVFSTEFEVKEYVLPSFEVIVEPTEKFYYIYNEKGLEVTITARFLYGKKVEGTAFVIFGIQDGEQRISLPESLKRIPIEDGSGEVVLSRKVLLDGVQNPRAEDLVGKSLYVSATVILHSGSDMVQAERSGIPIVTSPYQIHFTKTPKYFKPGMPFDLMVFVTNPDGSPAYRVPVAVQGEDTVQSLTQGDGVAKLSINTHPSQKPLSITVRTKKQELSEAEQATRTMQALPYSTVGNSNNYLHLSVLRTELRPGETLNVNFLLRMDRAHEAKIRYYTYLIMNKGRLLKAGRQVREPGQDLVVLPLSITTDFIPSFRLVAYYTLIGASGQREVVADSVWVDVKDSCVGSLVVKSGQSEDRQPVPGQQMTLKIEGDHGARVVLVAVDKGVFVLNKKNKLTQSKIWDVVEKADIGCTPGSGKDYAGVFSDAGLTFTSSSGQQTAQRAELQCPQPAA
T1 sequence (P01024 749-1663 limits assumed, chain 2 of 3): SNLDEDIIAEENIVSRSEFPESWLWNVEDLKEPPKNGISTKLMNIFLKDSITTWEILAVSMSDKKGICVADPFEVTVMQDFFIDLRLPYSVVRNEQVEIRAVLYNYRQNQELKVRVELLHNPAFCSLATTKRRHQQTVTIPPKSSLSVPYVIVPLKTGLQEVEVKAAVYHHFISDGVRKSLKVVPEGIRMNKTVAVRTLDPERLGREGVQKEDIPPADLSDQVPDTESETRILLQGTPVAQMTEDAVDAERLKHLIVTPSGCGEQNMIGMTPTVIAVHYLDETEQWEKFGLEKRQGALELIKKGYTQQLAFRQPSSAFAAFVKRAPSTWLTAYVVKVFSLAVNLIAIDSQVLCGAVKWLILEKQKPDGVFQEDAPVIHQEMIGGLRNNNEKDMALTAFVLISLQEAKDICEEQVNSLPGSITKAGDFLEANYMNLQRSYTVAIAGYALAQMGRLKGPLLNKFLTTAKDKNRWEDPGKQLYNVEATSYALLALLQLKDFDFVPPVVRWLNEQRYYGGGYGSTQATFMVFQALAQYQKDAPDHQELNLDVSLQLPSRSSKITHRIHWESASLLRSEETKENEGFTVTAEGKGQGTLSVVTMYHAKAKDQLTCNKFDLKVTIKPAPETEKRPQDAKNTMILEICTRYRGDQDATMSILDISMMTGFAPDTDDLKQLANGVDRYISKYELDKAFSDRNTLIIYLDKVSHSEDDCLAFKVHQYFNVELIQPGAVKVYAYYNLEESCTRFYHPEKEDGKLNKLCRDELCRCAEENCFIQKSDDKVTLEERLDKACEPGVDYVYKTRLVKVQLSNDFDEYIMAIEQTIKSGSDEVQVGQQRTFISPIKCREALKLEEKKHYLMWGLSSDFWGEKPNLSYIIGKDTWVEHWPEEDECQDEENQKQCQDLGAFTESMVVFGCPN
T1 sequence (P00751 260-764 limits assumed, chain 3 of 3): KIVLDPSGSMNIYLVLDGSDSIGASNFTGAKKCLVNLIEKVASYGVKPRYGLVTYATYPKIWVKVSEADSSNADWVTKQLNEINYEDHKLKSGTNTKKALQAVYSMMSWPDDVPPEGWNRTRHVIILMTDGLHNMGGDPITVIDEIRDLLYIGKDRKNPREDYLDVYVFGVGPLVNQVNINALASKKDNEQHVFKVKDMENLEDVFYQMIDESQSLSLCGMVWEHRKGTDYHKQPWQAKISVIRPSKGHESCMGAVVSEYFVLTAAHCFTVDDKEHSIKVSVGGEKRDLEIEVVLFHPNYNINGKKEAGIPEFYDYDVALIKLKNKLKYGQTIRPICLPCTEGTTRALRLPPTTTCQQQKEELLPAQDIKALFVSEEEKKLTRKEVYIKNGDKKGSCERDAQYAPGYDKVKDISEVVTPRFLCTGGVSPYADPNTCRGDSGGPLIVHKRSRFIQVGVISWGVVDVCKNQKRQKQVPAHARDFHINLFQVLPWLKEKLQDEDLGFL

[2] = target: T2, CP C3-convertase (C4b2a) (UniProt P0C0L4 757-1446; P0C0L4 20-675; P0C0L4 1454-1744; P06681 244-752)
T2 sequence (P0C0L4 757-1446 limits assumed, chain 1 of 4): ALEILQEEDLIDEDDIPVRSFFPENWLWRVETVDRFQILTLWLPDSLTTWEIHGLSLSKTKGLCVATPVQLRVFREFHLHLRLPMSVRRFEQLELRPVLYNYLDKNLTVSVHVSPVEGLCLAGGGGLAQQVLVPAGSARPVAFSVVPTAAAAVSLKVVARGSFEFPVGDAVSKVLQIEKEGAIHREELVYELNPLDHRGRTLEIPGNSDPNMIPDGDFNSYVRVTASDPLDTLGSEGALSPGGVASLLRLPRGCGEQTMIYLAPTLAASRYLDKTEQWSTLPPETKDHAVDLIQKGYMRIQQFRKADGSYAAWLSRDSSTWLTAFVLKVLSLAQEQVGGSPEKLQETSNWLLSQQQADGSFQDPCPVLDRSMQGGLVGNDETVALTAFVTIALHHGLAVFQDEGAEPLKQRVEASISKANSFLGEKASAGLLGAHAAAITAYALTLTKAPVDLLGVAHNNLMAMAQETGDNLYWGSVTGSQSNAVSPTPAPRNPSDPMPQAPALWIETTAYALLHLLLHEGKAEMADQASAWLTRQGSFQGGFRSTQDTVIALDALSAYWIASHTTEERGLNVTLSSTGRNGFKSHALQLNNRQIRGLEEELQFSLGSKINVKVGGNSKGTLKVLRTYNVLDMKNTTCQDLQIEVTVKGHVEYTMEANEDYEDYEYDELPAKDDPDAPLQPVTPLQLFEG
T2 sequence (P0C0L4 20-675 limits assumed, chain 2 of 4): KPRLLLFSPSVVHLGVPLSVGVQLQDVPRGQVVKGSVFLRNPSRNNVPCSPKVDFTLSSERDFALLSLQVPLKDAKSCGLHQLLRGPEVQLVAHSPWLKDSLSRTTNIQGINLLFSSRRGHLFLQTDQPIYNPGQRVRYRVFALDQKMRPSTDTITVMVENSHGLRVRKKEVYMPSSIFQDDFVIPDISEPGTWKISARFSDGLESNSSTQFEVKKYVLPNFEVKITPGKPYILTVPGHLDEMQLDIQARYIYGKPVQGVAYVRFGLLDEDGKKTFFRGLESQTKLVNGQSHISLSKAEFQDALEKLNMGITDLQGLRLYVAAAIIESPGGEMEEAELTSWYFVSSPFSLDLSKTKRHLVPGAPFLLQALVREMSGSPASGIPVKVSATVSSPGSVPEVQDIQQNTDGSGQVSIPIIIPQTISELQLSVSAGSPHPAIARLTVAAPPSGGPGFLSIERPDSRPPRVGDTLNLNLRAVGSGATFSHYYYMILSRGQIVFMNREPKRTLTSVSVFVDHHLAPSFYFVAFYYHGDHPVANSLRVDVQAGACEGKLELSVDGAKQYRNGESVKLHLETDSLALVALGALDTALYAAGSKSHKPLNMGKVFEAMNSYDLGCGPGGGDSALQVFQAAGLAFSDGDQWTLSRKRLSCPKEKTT
T2 sequence (P0C0L4 1454-1744 limits assumed, chain 3 of 4): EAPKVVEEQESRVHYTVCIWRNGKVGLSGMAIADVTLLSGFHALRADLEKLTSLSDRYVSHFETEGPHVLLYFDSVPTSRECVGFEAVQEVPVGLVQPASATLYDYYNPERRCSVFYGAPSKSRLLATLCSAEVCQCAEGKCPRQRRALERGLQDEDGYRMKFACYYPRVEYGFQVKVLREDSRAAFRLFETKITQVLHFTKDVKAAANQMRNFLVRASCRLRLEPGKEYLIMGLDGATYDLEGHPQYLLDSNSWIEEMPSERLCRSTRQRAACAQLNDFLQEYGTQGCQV
T2 sequence (P06681 244-752 limits assumed, chain 4 of 4): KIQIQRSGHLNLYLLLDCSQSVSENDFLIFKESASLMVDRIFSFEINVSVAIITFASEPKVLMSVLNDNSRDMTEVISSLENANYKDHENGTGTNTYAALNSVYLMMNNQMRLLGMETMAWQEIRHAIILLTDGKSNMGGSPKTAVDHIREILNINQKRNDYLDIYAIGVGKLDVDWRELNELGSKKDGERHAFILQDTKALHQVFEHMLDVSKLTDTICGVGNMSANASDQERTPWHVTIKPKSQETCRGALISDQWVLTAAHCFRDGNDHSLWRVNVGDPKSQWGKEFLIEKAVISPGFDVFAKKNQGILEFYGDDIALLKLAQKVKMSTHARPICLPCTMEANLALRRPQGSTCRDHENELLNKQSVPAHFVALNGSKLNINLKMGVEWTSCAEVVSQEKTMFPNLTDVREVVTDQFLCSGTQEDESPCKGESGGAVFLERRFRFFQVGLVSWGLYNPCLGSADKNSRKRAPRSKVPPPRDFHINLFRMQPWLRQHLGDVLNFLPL

[3] = target: T1, AP C3-convertase (C3bBb); remark: listed apart in the source
[4] = target: T2, CP C3-convertase (C4b2a); remark: listed apart in the source
[5] = target: C4b (UniProt P0C0L4 757-1446; P0C0L4 20-675; P0C0L4 1454-1744, in the SPR assays biotinylated at the free -SH group with EZ-Link PEO-maleimide-activated biotin)
Chain of C4b (P0C0L4 757-1446 limits assumed, chain 1 of 3): as the sequence (P0C0L4 757-1446 limits assumed, chain 1 of 4) above
Chain of C4b (P0C0L4 20-675 limits assumed, chain 2 of 3): as the sequence (P0C0L4 20-675 limits assumed, chain 2 of 4) above
Chain of C4b (P0C0L4 1454-1744 limits assumed, chain 3 of 3): as the sequence (P0C0L4 1454-1744 limits assumed, chain 3 of 4) above

[6] = target: C3b (UniProt P01024 23-667; P01024 749-1663, in the SPR assays biotinylated at the free -SH group with EZ-Link PEO-maleimide-activated biotin)
Chain of C3b (P01024 23-667 limits assumed, chain 1 of 2): as the sequence (P01024 23-667 limits assumed, chain 1 of 3) above
Chain of C3b (P01024 749-1663 limits assumed, chain 2 of 2): as the sequence (P01024 749-1663 limits assumed, chain 2 of 3) above

AP-DAA IC50 [1]	Relative AP-DAA [1]	CP-DAA IC50 [2] [µM]	Relative CP-DAA [2]	further results	Binder
> 19 nM	< 0.1	457	0.03		B1
> 10 nM	< 0.1	> 1000	< 0.01		B2
				AP-DAA, fold gain compared to D2M2-4 [3]: 3.4 fold; CP-DAA, fold increase [4]: ~2 fold	B3
				AP-DAA, fold gain compared to D2M2-4 [3]: 6.7 fold; CP-DAA, fold increase [4]: ~2 fold	B4
				AP-DAA, fold increase compared to D2M2-4 [3]: 7.2 fold	B5
				AP-DAA, fold increase compared to D2M2-4 [3]: 5.6 fold	B6
> 10 nM	< 0.3	39.3	0.4	C4b CFA: Time (min.) for 50% cleavage of C4B α′-chain [5]: 5.5 min; Relative C4b CFA [5]: 1.7; C3b CFA: Time (min.) for 50% cleavage of C3B α′-chain [6]: 17.5 min; Relative C3b CFA [6]: 0.25	B7
2.4 nM and 2.1 nM					B8
3.1 nM and 2.3 nM and 1.1 nM			1		B9
				Relative C4b CFA [5]: 1; Relative C3b CFA [6]: 1	B10
